Experimental data reported in article PMC7835349 (Communications Biology, 2021).
Where “and” joins values, the source holds several entries; their conditions need not be identical. Equal values may be shown once. Entries after “also recorded” stand apart in the source; their conditions may differ.

Assays:
cleaved caspase-3 (CC3) = assay: Cleaved caspase-3 in RS4;11 tumours by MSD ELISA; format: in vivo, C.B-17 SCID mouse
Method: Tumours were excised, snap frozen in liquid nitrogen and stored at –80 °C. Tumours were homogenised in lysis buffer containing protease and phosphatase inhibitors, protein concentration determined by Pierce BCA Protein Assay Kit and diluted in lysis buffer to a protein concentration of 0.4 μg/μL. Cleaved caspase-3 (CC3) was measured using the mesoscale cleaved caspase-3 (Asp175) assay whole cell lysate kit according to manufacturer’s instructions. Induction of CC3 was expressed as fold change of treated tumours over vehicle control.

[1] = Plasma pharmacokinetics after IV bolus in C.B-17 SCID mouse; format: in vivo; settings: mouse, at 10 mg/kg or equivalent
Method: Pharmacokinetic studies were carried out in the female C.B-17 SCID mouse. Either freshly prepared solutions of AZD4320 in 30% hydroxypropyl-β-cyclodextrin or drug-dendrimer conjugates in phosphate buffered saline were injected as a bolus into the tail vein at dosing volume of 5 ml/kg. Blood samples were collected at different time points post dose and analysed as below.
Blood samples were collected from the jugular vein by venepuncture into K2EDTA (as anticoagulant) tubes. Immediately following collection into the K2EDTA tube the samples were mixed gently and kept on crushed ice until centrifugation. Within 30 mins of blood collection, each sample was centrifuged (1500 g for 10 min at 4 °C) to generate plasma which was kept on wet ice at all times in polypropylene tubes. Duplicate 50 μL aliquots were transferred immediately after centrifugation into uniquely labelled polypropylene tubes (‘released’ AZD4320) containing equivalent amount (50 μL) of 0.2 M citric acid solution, inverted 10 times and then stored in a freezer set to maintain a temperature of −80 °C, until analysis.
The concentrations of ‘total’ AZD4320 were determined in plasma by overnight incubation with hydrazine followed by protein precipitation with acetonitrile and subsequent liquid/liquid extraction. Liquid chromatography with mass spectrometric detection (LC-MS/MS, details in Supplementary Table 5) was used to quantitate both ‘released’ and ‘total’ AZD4320.
(§1) Sample analyses were performed in batches containing study samples, calibration standards at 10 concentration levels, QC samples at three concentration levels in duplicate and blank samples. The analytical run acceptance criteria for calibration standards and QC samples was that at least 75% of back-calculated concentrations for calibration standards and at least 2/3 of the QC samples (at least 50% at each concentration level) should be within ±20% (±25% at LLOQ) from nominal value.

[2] = Tumour pharmacokinetics (released and total AZD4320) in RS4;11 tumours; format: in vivo, C.B-17 SCID mouse; settings: for Concentration of Released AZD4320 in Tumour, Mean / Concentration of Released AZD4320 in Tumour, individual samples (Fig 5g/5h) / Concentrations of Total AZD4320 in Tumour, individual samples: 10 mg/kg AZD4320 equivalent; for Concentration of Released AZD4320 in Tumour, individual samples (Fig 5g/5h) / Concentrations of Total AZD4320 in Tumour, individual samples / Concentration of total AZD4320 in tumour: listed as SPL-8977; for Mean concentration of total AZD4320 in tumour / Concentration of total AZD4320 in tumour: tumour tissue; for Mean concentration of total AZD4320 in tumour: mean of 3 samples
From the text: For tumour measurements, tumours were harvested, split into smaller pieces and snap frozen in liquid nitrogen. Frozen tumour samples were subsequently weighed and then homogenised for both ‘released’ and ‘total’ AZD4320. For ‘released’ AZD4320, samples were homogenised on ice with an equal volume (w/v) of blank plasma containing 0.2 M citric acid. The samples were then processed according to the aforementioned plasma approach. For ‘total’ AZD4320, samples were homogenised with an equal volume of plasma (w/v) and then processed according to the aforementioned ‘total’ approach.
as §1
Female C.B.−17 SCID mice were purchased from Charles River Laboratories. Mice were 5–8 weeks old at the time of tumour implantation. All xenograft studies were conducted at our Association for the Assessment and Accreditation of Laboratory Animal Care accredited facility in Waltham, MA in accordance with ethical regulations described in the guidelines established by the internal Institutional Animal Care and Use Committee. The dendrimer conjugates were formulated in citrate/phosphate buffer pH 5.0, diluted 1:10 with 5% glucose containing 1% w/v Kolliphor HS15, and AZD4320 was formulated in 30% HP-β-CD and dosed as a weekly intravenous (IV) administration at a volume of 5 ml/kg at the indicated doses. Five million RS4;11, five million SUDHL-4 or five million OCI-LY-10 cells were injected subcutaneously in the right flank of mice in a volume of 0.1 ml. Tumour volumes (measured by caliper), animal body weight, and tumor condition were recorded twice weekly for the duration of the study. The tumour volume was calculated (taking length to be the longest diameter across the tumour and width to be the corresponding perpendicular diameter) using the formula: length (mm) x width (mm)^2/0.52. For efficacy studies, mice were randomized based on tumour volumes using stratified sampling and enrolled into control and treatment groups. Tumour growth inhibition from the start of treatment was quantified by measuring the difference in tumour volume between control and treated groups. Survival analysis was evaluated using Mantel-Cox test. Tumours were also taken for bioanalysis.

telemetered rats = assay: Conscious rat telemetry (QRS amplitude, blood pressure, tolerability); settings: telemetered rat; AZD4320 10 mg/kg, conjugates 30 mg/kg IV;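 also: male Han Wistar rats carrying implanted telemetry transmitters, with ECG and arterial pressure recorded continuously while unrestrained in their home cage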
From the text: Male Han Wistar rats were implanted with HD‐S11 transmitters (Data Sciences International, St. Paul, MN USA) under isoflurane anaesthesia, the telemetry transmitter was placed in the peritoneal cavity, the arterial blood pressure catheter was placed in the terminal abdominal aorta and the ECG electrodes were sutured, one at the dorsal surface of the xiphoid process and one at the anterior mediastinum, close to the right atrium[42]. Animals were allowed to recover for at least 2 weeks and were around 2–3 months at the time of experimentation. The animals were pair‐housed in standard rat cages with a non‐instrumented companion throughout the study. Cages were prepared with bedding material and enrichment.
Telemetry recordings took place in the home cage. […] The animals were removed from the cage temporarily for dosing and blood sampling. Animals were not subject to restraint except where dosing and blood sampling was performed. Data acquisition used Dataquest Open A.R.T.™ with HEM software version 4.2 (Notocord Inc).
For evaluation of AZD4320, n = 8 rats received single doses of 0 (vehicle: 30% Kleptose, pH9) or 10 mg/kg AZD4320, administered as a 30-min intravenous infusion. A cross-over study design was used, with an interval of 7 days between treatments.
Data for all parameters were collected continuously during the recording period. The continuous data from each animal was binned into chosen time intervals of varying length and averaged to generate a single data point for each reported nominal time. Each reported nominal timepoint was then averaged across each of the animals tested for each dose level.

[3] = RS4;11, single dose AZD0466 34 mg/kg, 3 h, 34 mg/kg
[4] = RS4;11, single dose AZD0466 34 mg/kg, 8 h, 34 mg/kg
[5] = RS4;11, single dose AZD0466 34 mg/kg, 24 h, 34 mg/kg
[6] = RS4;11, single dose AZD0466 34 mg/kg, 48 h, 34 mg/kg
[7] = RS4;11, single dose AZD0466 34 mg/kg, 72 h, 34 mg/kg
[8] = RS4;11, single dose AZD0466 103 mg/kg, 3 h, 103 mg/kg
[9] = RS4;11, single dose AZD0466 103 mg/kg, 8 h, 103 mg/kg
[10] = RS4;11, single dose AZD0466 103 mg/kg, 24 h, 103 mg/kg
[11] = RS4;11, single dose AZD0466 103 mg/kg, 48 h, 103 mg/kg
[12] = RS4;11, single dose AZD0466 103 mg/kg, 72 h, 103 mg/kg

## AZD4320-MIDA-PEG2100 [AZD0466]
Cleaved caspase-3 (CC3); RS4;11, single dose AZD0466 34 mg/kg (10mg/kg AZD4320), 3 hr
  CC3 PD fold over vehicle, individual tumours: 1.1 fold over vehicle (2×) and 0.9 fold over vehicle
Cleaved caspase-3 (CC3); RS4;11, single dose AZD0466 34 mg/kg (10mg/kg AZD4320), 8 hr
  CC3 PD fold over vehicle, individual tumours: 1.1 fold over vehicle and 1.5 fold over vehicle and 1 fold over vehicle
Cleaved caspase-3 (CC3); RS4;11, single dose AZD0466 34 mg/kg (10mg/kg AZD4320), 24 hr
  CC3 PD fold over vehicle, individual tumours: 12.2 fold over vehicle and 4.6 fold over vehicle and 5.3 fold over vehicle
Cleaved caspase-3 (CC3); RS4;11, single dose AZD0466 34 mg/kg (10mg/kg AZD4320), 48 hr
  CC3 PD fold over vehicle, individual tumours: 8.7 fold over vehicle and 9 fold over vehicle and 11 fold over vehicle
Cleaved caspase-3 (CC3); RS4;11, single dose AZD0466 34 mg/kg (10mg/kg AZD4320), 72 hr
  CC3 PD fold over vehicle, individual tumours: 1.8 fold over vehicle and 1.4 fold over vehicle and 2.1 fold over vehicle
Cleaved caspase-3 (CC3); RS4;11, single dose AZD0466 103 mg/kg (30mg/kg AZD4320), 3 hr
  CC3 PD fold over vehicle, individual tumours: 6.8855 fold over vehicle and 4.506 fold over vehicle and 6.287 fold over vehicle
Cleaved caspase-3 (CC3); RS4;11, single dose AZD0466 103 mg/kg (30mg/kg AZD4320), 8 hr
  CC3 PD fold over vehicle, individual tumours: 52.0454 fold over vehicle and 56.5349 fold over vehicle and 45.3617 fold over vehicle
Cleaved caspase-3 (CC3); RS4;11, single dose AZD0466 103 mg/kg (30mg/kg AZD4320), 24 hr
  CC3 PD fold over vehicle, individual tumours: 82.2669 fold over vehicle and 79.7603 fold over vehicle and 78.3412 fold over vehicle
Cleaved caspase-3 (CC3); RS4;11, single dose AZD0466 103 mg/kg (30mg/kg AZD4320), 48 hr
  CC3 PD fold over vehicle, individual tumours: 33.7478 fold over vehicle and 42.9825 fold over vehicle and 23.216 fold over vehicle
Cleaved caspase-3 (CC3); RS4;11, single dose AZD0466 103 mg/kg (30mg/kg AZD4320), 72 hr
  CC3 PD fold over vehicle, individual tumours: 7.7976 fold over vehicle and 4.512 fold over vehicle and 6.025 fold over vehicle
[1]; 1 hr
  Total Concentration in Plasma as AZD4320, Mean (Fig S9): 117.3 µg/mL
[1]; 3 hr
  Total Concentration in Plasma as AZD4320, Mean (Fig S9): 49.1 µg/mL
[1]; 9 hr
  Total Concentration in Plasma as AZD4320, Mean (Fig S9): 36.3 µg/mL
[1]; 20 hr
  Total Concentration in Plasma as AZD4320, Mean (Fig S9): 8.0 µg/mL
[2]; 1 hr
  Concentration of Released AZD4320 in Tumour, Mean: 8.1 ng/mL
  Concentration of Released AZD4320 in Tumour, individual samples (Fig 5g/5h): 8.2 ng/mL and 11.2 ng/mL and 4.7 ng/mL
  Mean concentration of total AZD4320 in tumour: 536 ng/mL
  Concentration of total AZD4320 in tumour: 553 ng/mL and 665 ng/mL and 390 ng/mL
[2]; 3 hr
  Concentration of Released AZD4320 in Tumour, Mean: 15.1 ng/mL
  Concentration of Released AZD4320 in Tumour, individual samples (Fig 5g/5h): 16 ng/mL and 18.8 ng/mL and 10.4 ng/mL
  Mean concentration of total AZD4320 in tumour: 565 ng/mL
  Concentration of total AZD4320 in tumour: 621 ng/mL and 697 ng/mL and 376 ng/mL
[2]; 9 hr
  Concentration of Released AZD4320 in Tumour, Mean: 109 ng/mL
  Concentration of Released AZD4320 in Tumour, individual samples (Fig 5g/5h): 178.8 ng/mL and 71.4 ng/mL and 78 ng/mL
  Concentrations of Total AZD4320 in Tumour, individual samples: 1886 ng/mL and 831 ng/mL and 866 ng/mL
  Mean concentration of total AZD4320 in tumour: 1194 ng/mL
[2]; 20 hr
  Concentration of Released AZD4320 in Tumour, Mean: 244 ng/mL
  Concentration of Released AZD4320 in Tumour, individual samples (Fig 5g/5h): 214.9 ng/mL and 250.1 ng/mL and 267.9 ng/mL
  Mean concentration of total AZD4320 in tumour: 989 ng/mL
  Concentration of total AZD4320 in tumour: 926 ng/mL and 923 ng/mL and 1118 ng/mL
[2]; 48 hr
  Concentration of Released AZD4320 in Tumour, Mean: 389 ng/mL
  Concentration of Released AZD4320 in Tumour, individual samples (Fig 5g/5h): 493.9 ng/mL and 123.4 ng/mL and 550.2 ng/mL
  Concentrations of Total AZD4320 in Tumour, individual samples: 1152 ng/mL and 319 ng/mL and 1257 ng/mL
  Mean concentration of total AZD4320 in tumour: 909 ng/mL
[2]; 72 hr
  Concentration of Released AZD4320 in Tumour, Mean: 462 ng/mL
  Concentration of Released AZD4320 in Tumour, individual samples (Fig 5g/5h): 290.2 ng/mL and 611.5 ng/mL and 485 ng/mL
  Mean concentration of total AZD4320 in tumour: 746 ng/mL
  Concentration of total AZD4320 in tumour: 536 ng/mL and 983 ng/mL and 719 ng/mL
[2]; [3]
  Tumor PK Released AZD4320, individual tumours: 16 ng/g and 18.8 ng/g and 10.4 ng/g
  Tumor PK Total AZD4320, individual tumours: 621 ng/g and 697 ng/g and 376 ng/g
[2]; [4]
  Tumor PK Released AZD4320, individual tumours: 179 ng/g and 71.4 ng/g and 78 ng/g
  Tumor PK Total AZD4320, individual tumours: 1886 ng/g and 831 ng/g and 866 ng/g
[2]; [5]
  Tumor PK Released AZD4320, individual tumours: 215 ng/g and 250 ng/g and 268 ng/g
  Tumor PK Total AZD4320, individual tumours: 926 ng/g and 923 ng/g and 1118 ng/g
[2]; [6]
  Tumor PK Released AZD4320, individual tumours: 494 ng/g and 123 ng/g and 550 ng/g
  Tumor PK Total AZD4320, individual tumours: 1152 ng/g and 319 ng/g and 1257 ng/g
[2]; [7]
  Tumor PK Released AZD4320, individual tumours: 290 ng/g and 612 ng/g and 485 ng/g
  Tumor PK Total AZD4320, individual tumours: 536 ng/g and 983 ng/g and 719 ng/g
[2]; [8]
  Tumor PK Released AZD4320, individual tumours: 227 ng/g and 79 ng/g and 90 ng/g
  Tumor PK Total AZD4320, individual tumours: 5852 ng/g and 2518 ng/g and 2703 ng/g
[2]; [9]
  Tumor PK Released AZD4320, individual tumours: 1407 ng/g and 1218 ng/g and 972 ng/g
  Tumor PK Total AZD4320, individual tumours: 14358 ng/g and 9822 ng/g and 9418 ng/g
[2]; [10]
  Tumor PK Released AZD4320, individual tumours: 1730 ng/g and 1595 ng/g and 1484 ng/g
  Tumor PK Total AZD4320, individual tumours: 4335 ng/g and 4133 ng/g and 3920 ng/g
[2]; [11]
  Tumor PK Released AZD4320, individual tumours: 3581 ng/g and 4025 ng/g and 5214 ng/g
  Tumor PK Total AZD4320, individual tumours: 6225 ng/g and 5604 ng/g and 9523 ng/g
[2]; [12]
  Tumor PK Released AZD4320, individual tumours: 3295 ng/g and 5783 ng/g and 7049 ng/g
  Tumor PK Total AZD4320, individual tumours: 6132 ng/g and 7039 ng/g and 8246 ng/g
Telemetered rats
  effect on QRS amplitude: no effect on QRS amplitude; also recorded: no reduction in QRS amplitude; also recorded: negligible effect on QRS amplitude
